Experimental data taken from paper PMC11352460, “RILP Induces Cholesterol Accumulation in Lysosomes by Inhibiting Endoplasmic Reticulum–Endolysosome Interactions” (Cells, 2024).

T1: His-ORP1L(336-950aa) (UniProt Q9BXW6-1 336-950)
T1 construct: source: prokaryotic expressed, purified
T1 sequence (looked up): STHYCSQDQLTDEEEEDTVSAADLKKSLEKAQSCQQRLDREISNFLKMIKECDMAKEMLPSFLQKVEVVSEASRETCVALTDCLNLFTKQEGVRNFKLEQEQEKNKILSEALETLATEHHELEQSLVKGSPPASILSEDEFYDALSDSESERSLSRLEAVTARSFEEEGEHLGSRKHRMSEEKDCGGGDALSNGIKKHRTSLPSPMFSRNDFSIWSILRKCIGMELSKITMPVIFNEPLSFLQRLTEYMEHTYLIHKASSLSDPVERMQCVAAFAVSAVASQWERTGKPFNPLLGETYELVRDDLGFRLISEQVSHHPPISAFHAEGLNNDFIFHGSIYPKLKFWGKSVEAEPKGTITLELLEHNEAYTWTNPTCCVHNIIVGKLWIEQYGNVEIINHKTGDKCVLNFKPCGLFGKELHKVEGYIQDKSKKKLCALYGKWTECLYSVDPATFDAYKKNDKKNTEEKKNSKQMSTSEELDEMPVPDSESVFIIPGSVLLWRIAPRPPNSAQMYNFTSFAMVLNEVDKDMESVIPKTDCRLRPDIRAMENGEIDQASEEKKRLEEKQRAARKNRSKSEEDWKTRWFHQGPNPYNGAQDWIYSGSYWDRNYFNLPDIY

T2: His-ORP1L (UniProt Q9BXW6-1 1-950)
T2 construct: ORP1L in pET-28a; source: prokaryotic expressed, purified
T2 sequence (looked up): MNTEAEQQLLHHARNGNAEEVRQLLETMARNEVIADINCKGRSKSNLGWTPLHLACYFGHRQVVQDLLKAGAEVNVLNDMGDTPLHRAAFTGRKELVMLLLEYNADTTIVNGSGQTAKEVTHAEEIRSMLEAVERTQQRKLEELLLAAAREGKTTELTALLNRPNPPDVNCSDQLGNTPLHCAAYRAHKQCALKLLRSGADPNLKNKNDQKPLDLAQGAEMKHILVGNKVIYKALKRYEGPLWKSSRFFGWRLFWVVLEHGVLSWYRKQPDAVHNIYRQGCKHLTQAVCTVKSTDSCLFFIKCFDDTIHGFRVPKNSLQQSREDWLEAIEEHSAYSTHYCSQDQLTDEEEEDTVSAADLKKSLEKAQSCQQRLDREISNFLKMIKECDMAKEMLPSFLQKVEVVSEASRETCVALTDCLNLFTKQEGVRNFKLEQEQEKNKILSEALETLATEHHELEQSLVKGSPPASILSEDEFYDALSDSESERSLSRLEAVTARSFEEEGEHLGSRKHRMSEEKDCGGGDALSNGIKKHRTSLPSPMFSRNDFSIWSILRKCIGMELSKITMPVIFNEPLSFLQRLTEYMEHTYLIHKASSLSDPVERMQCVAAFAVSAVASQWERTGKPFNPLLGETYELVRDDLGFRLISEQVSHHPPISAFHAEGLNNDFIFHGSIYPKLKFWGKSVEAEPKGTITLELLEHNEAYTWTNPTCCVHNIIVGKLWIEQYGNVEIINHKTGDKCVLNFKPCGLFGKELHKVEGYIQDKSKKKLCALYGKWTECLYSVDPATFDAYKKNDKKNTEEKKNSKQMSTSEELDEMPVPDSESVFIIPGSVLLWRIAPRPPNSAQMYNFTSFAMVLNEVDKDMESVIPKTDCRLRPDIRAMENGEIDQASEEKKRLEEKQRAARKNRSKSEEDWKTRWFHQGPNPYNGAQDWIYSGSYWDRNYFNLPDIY


Columns and labels:
[1] = target: T1, His-ORP1L(336-950aa); test: pull-down; in vitro binding: purified prokaryotic expressed His-ORP1L or His-ORP1L(336-950aa) with increasing amounts of His-RILP, incubated with GST-VAPa(1-225aa) retained on GST beads; ORP1L bound assessed by Western blot; settings: both partners purified
[2] = target: T2, His-ORP1L; test: as above; settings: both partners purified

| binding result [1] | binding result [2] | Binder |
| --- | --- | --- |
| binds | binds | GST-VAPa(1-225aa) (domain or fragment, UniProt Q9P0L0 1-225, looked up, VAP-A (vesicle-associated membrane protein-associated protein A) residues 1-225, the cytoplasmic region; subcloned into pGEX-4T-1; also called GST-tagged VAP-A(1-225aa); source: prokaryotic expressed, retained on GST beads (GST-Sepharose 4B resin)) MASASGAMAKHEQILVLDPPTDLKFKGPFTDVVTTNLKLRNPSDRKVCFKVKTTAPRRYCVRPNSGIIDPGSTVTVSVMLQPFDYDPNEKSKHKFMVQTIFAPPNTSDMEAVWKEAKPDELMDSKLRCVFEMPNENDKLNDMEPSKAVPLNASKQDGPMPKPHSVSLNDTETRKLMEECKRLQGEMMKLSEENRHLRDEGLRLRKVAHSDKPGSTSTASFRDNVT |
| binds | – | His-RILP (natural protein, UniProt Q96NA2 1-401, looked up, RILP in pET-28a; source: prokaryotic expressed, purified) MEPRRAAPGVPGWGSREAAGSASAAELVYHLAGALGTELQDLARRFGPEAAAGLVPLVVRALELLEQAAVGPAPDSLQVSAQPAEQELRRLREENERLRRELRAGPQEERALLRQLKEVTDRQRDELRAHNRDLRQRGQETEALQEQLQRLLLVNAELRHKLAAMQTQLRAAQDRERERQQPGEAATPQAKERARGQAGRPGHQHGQEPEWATAGAGAPGNPEDPAEAAQQLGRPSEAGQCRFSREEFEQILQERNELKAKVFLLKEELAYFQRELLTDHRVPGLLLEAMKVAVRKQRKKIKAKMLGTPEEAESSEDEAGPWILLSDDKGDHPPPPESKIQSFFGLWYRGKAESSEDETSSPAPSKLGGEEEAQPQSPAPDPPCSALHEHLCLGASAAPEA |
